B1: carboxypeptidase B: carboxypeptidase B (manufactured by Sigma-Aldrich Corp.) (protein, UniProt P09955 111-416, looked up)
Carboxypeptidase B: TTGHSYEKYNNWETIEAWTKQVTSENPDLISRTAIGTTFLGNNIYLLKVGKPGPNKPAIFMDCGFHAREWISHAFCQWFVREAVLTYGYESHMTEFLNKLDFYVLPVLNIDGYIYTWTKNRMWRKTRSTNAGTTCIGTDPNRNFDAGWCTTGASTDPCDETYCGSAAESEKETKALADFIRNNLSSIKAYLTIHSYSQMILYPYSYDYKLPENNAELNNLAKAAVKELATLYGTKYTYGPGATTIYPAAGGSDDWAYDQGIKYSFTFELRDKGRYGFILPESQIQATCEETMLAIKYVTNYVLGHL
B2: thermolysin: thermolysin (manufactured by Wako Pure Chemical Industries, Ltd.) (protein, UniProt P00800 233-548, looked up)
Thermolysin: ITGTSTVGVGRGVLGDQKNINTTYSTYYYLQDNTRGNGIFTYDAKYRTTLPGSLWADADNQFFASYDAPAVDAHYYAGVTYDYYKNVHNRLSYDGNNAAIRSSVHYSQGYNNAFWNGSQMVYGDGDGQTFIPLSGGIDVVAHELTHAVTDYTAGLIYQNESGAINEAISDIFGTLVEFYANKNPDWEIGEDVYTPGISGDSLRSMSDPAKYGDPDHYSKRYTGTQDNGGVHINSGIINKAAYLISQGGTHYGVSVVGIGRDKLGKIFYRALTQYLTPTSNFSQLRAAAVQSATDLYGSTSQEVASVKQAFDAVGVK
B3: carboxypeptidase A: carboxypeptidase A (manufactured by Wako Pure Chemical Industries, Ltd.) (protein, UniProt P00730 111-419, looked up)
Carboxypeptidase A1: ARSTNTFNYATYHTLDEIYDFMDLLVAEHPQLVSKLQIGRSYEGRPIYVLKFSTGGSNRPAIWIDLGIHSREWITQATGVWFAKKFTEDYGQDPSFTAILDSMDIFLEIVTNPDGFAFTHSQNRLWRKTRSVTSSSLCVGVDANRNWDAGFGKAGASSSPCSETYHGKYANSEVEVKSIVDFVKDHGNFKAFLSIHSYSQLLLYPYGYTTQSIPDKTELNQVAKSAVEALKSLYGTSYKYGSIITTIYQASGGSIDWSYNQGIKYSFTFELRDTGRYGFLLPASQIIPTAQETWLGVLTIMEHTLNNLY
B4: proteinase K: Proteinase K (manufactured by Wako Pure Chemical Industries, Ltd.) (protein, UniProt P06873 106-384, looked up)
Proteinase K: AAQTNAPWGLARISSTSPGTSTYYYDESAGQGSCVYVIDTGIEASHPEFEGRAQMVKTYYYSSRDGNGHGTHCAGTVGSRTYGVAKKTQLFGVKVLDDNGSGQYSTIIAGMDFVASDKNNRNCPKGVVASLSLGGGYSSSVNSAAARLQSSGVMVAVAAGNNNADARNYSPASEPSVCTVGASDRYDRRSSFSNYGSVLDIFGPGTSILSTWIGGSTRSISGTSMATPHVAGLAAYLMTLGKTTAASACRYIADTANKGDLSNIPFGTVNLLAYNNYQA
B5: carboxypeptidase Y: carboxypeptidase Y (manufactured by Oriental Yeast Co., Ltd.) (protein, UniProt P00729 112-532, looked up)
Carboxypeptidase Y: KIKDPKILGIDPNVTQYTGYLDVEDEDKHFFFWTFESRNDPAKDPVILWLNGGPGCSSLTGLFFELGPSSIGPDLKPIGNPYSWNSNATVIFLDQPVNVGFSYSGSSGVSNTVAAGKDVYNFLELFFDQFPEYVNKGQDFHIAGESYAGHYIPVFASEILSHKDRNFNLTSVLIGNGLTDPLTQYNYYEPMACGEGGEPSVLPSEECSAMEDSLERCLGLIESCYDSQSVWSCVPATIYCNNAQLAPYQRTGRNVYDIRKDCEGGNLCYPTLQDIDDYLNQDYVKEAVGAEVDHYESCNFDINRNFLFAGDWMKPYHTAVTDLLNQDLPILVYAGDKDFICNWLGNKAWTDVLPWKYDEEFASQKVRNWTASITDEVAGEVKSYKHFTYLRVFNGGHMVPFDVPENALSMVNEWIHGGFSL
B6: protease type VIII: protease (type VIII Subtilisin Carlsberg: manufactured by Sigma-Aldrich Corp.) (protein, UniProt P00780 106-379, looked up)
Subtilisin Carlsberg: AQTVPYGIPLIKADKVQAQGFKGANVKVAVLDTGIQASHPDLNVVGGASFVAGEAYNTDGNGHGTHVAGTVAALDNTTGVLGVAPSVSLYAVKVLNSSGSGSYSGIVSGIEWATTNGMDVINMSLGGASGSTAMKQAVDNAYAKGVVVVAAAGNSGSSGNTNTIGYPAKYDSVIAVGAVDSNSNRASFSSVGAELEVMAPGAGVYSTYPTNTYATLNGTSMASPHVAGAAALILSKHPNLSASQVRNRLSSTATYLGSSFYYGKGLINVEAAAQ

Experiment: Screening of protease for hemoglobin A1c determination (pH 7.5)
Format: biochemical
Conditions: pH 7.5
Method: (§1) A screening method is shown in which a protease that cleaves a glycated peptide from N-terminal-glycated pentapeptide of a hemoglobin β-chain without substantially cleaving a glycated amino acid or glycated peptide from N-terminal-glycated pentapeptide of a hemoglobin α-chain. Each 10 μl of a sample for screening was placed in 3 wells of a 96-well plate, respectively. Then, the first well was supplemented with 50 μl of an α-solution, the second well was supplemented with 50 μl of a β-solution, and the third well was supplemented with 50 μl of a control solution. After the plate was incubated at 37° C. for 60 minutes, 50 μl of distilled water and 50 μl of a developing solution were added, and the whole was left at room temperature for 30 minutes. Then, the absorbance at a measuring wavelength of 550 nm and a reference wavelength of 595 nm were determined using a Microplate Reader (model 550, manufactured by Bio-Rad), to select a sample having a difference in the absorbance between the β-solution-supplemented well and the control solution-supplemented well larger than a difference in the absorbance between the α-solution-supplemented well and the control solution-supplemented well. Thus the protease of object was screened. The samples to be used include: carboxypeptidase B (manufactured by Sigma-Aldrich Corp.); carboxypeptidase W (manufactured by Wako Pure Chemical Industries, Ltd.); carboxypeptidase Y (manufactured by Oriental Yeast Co., Ltd.); protease (type XXVII nagase: manufactured by Sigma-Aldrich Corp.); protease (type VIII Subtilisin Carlsberg: manufactured by Sigma-Aldrich Corp.); protease (type XXIV Bacterial: manufactured by Sigma-Aldrich Corp.); Proteinase K (manufactured by Wako Pure Chemical Industries, Ltd.); neutral proteinase (manufactured by Toyobo Co., Ltd.); carboxypeptidase A (manufactured by Wako Pure Chemical Industries, Ltd.); thermolysin (manufactured by Wako Pure Chemical Industries, Ltd.); and distilled water. To confirm a degree of color development caused by a developing solution, 10 μl of 1 mM FVH (manufactured by Peptide Institute Inc.) and 1 mM FVL (manufactured by Peptide Institute Inc.) were placed in a well severally, followed by adding 50 μl of the control solution. The whole was incubated at 37° C. for 60 minutes. Then, 50 μl of distilled water and 50 μl of the developing solution were added and the whole was left at room temperature for 30 minutes, followed by the determination in a similar manner as described above.
(§2) 0.2 mM β-Glycated pentapeptide (manufactured by Peptide Institute Inc.)
(§3) 0.09% 4-Aminoantipyrine (manufactured by Wako Pure Chemical Industries, Ltd.)
(§4) 0.06% TODB (manufactured by Dojindo Laboratories)
(§5) 15 U/ml Peroxidase (manufactured by Sigma-Aldrich Corp.)
(§6) Various bacteria were cultured with shaking in Difco Lactobacilli MRS Broth (manufactured by Becton, Dickinson and Company), a MM medium (2.5% mannose, 2.5% beer yeast extract, pH7.0), and a YPG medium (2% glucose, 1% polypeptone, 2% yeast extract, 0.1% potassium dihydrogen phosphate, 0.05% magnesium sulfate heptahydrate, pH 7.0) at a temperature of from 28 to 30° C. for 1 to 7 days. Then, cells were removed by centrifugation from the culture solutions to obtain culture supernatants. A sample was prepared by diluting the obtained culture supernatants 10-fold with a 10 mM potassium phosphate buffer (pH7.5), and the determination was performed in a similar manner as Example 1.

For B1, the “specificity for β-chain over α-chain N-terminal glycated pentapeptide” value was “cleave a glycated peptide from an N-terminal glycated pentapeptide of a hemoglobin β-chain without substantially cleaving”.
In the case of B2, the “specificity for β-chain over α-chain N-terminal glycated pentapeptide” value is reported as “cleave a glycated peptide from an N-terminal glycated pentapeptide of a hemoglobin β-chain without substantially cleaving”.

Same assay, conditions: pH 7.5, 37° C. 60 minutes; 550 nm, reference 595 nm; FOD923 developing solution

Going from B3 to B4, the “β-Solution (absorbance, RAW DATA)” value falls from 0.145 to 0.077.

First: B1
Second: B5
The “β-Solution (absorbance, RAW DATA)” value of the first is lower: 0.127 for the first, 0.209 for the second.

Going from B2 to B6, the “β-Solution (absorbance, RAW DATA)” value falls from 0.249 to 0.020.

Experiment: as above
Format: biochemical
Conditions: pH 7.5, 37° C. 60 minutes; 550 nm, reference 595 nm; FOD923 developing solution
Method: as §1
(§7) 0.2 mM α-Glycated pentapeptide (manufactured by Peptide Institute Inc.)
as §3, §4, §5, §6

Going from B3 to B4, the “α-Solution (absorbance, RAW DATA)” value rises from 0.022 to 0.031.

Going from B1 to B5, the “α-Solution (absorbance, RAW DATA)” value rises from 0.036 to 0.240.

Going from B2 to B6, the “α-Solution (absorbance, RAW DATA)” value falls from 0.053 to 0.023.

Experiment: Screening of protease (pH 3.5), control solution without substrate
Format: biochemical
Conditions: pH 3.5, no substrate; 550 nm, reference 595 nm
Method: (§8) A screening method is shown in which a protease that cleaves a glycated peptide from N-terminal-glycated pentapeptide of a hemoglobin β-chain without substantially cleaving a glycated amino acid or glycated peptide from N-terminal-glycated pentapeptide of a hemoglobin α-chain. Each 10 μl of a sample for screening was placed in 3 wells of a 96-well plate, respectively. Then, the first well was supplemented with 50 μl of an α-solution, the second well was supplemented with 50 μl of a β-solution, and the third well was supplemented with 50 μl of a control solution. After the plate was incubated at 37° C. for 60 minutes, 50 μl of pH-regulating solution and 50 μl of a developing solution were added, and the whole was left at room temperature for 30 minutes. Then, the absorbance at a measuring wavelength of 550 nm and a reference wavelength of 595 nm were determined using a Microplate Reader (model 550, manufactured by Bio-Rad), to select a sample having a difference in the absorbance between the β-solution-supplemented well and the control solution-supplemented well larger than a difference in the absorbance between the α-solution-supplemented well and the control solution-supplemented well. Thus the protease of object was screened. The samples to be used include: carboxypeptidase B (manufactured by Sigma-Aldrich Corp.); carboxypeptidase W (manufactured by Wako Pure Chemical Industries, Ltd.); carboxypeptidase Y (manufactured by Oriental Yeast Co., Ltd.); protease (type XXVII nagase: manufactured by Sigma-Aldrich Corp.); protease (type VIII Subtilisin Carlsberg: manufactured by Sigma-Aldrich Corp.); protease (type XXIV Bacterial: manufactured by Sigma-Aldrich Corp.); Proteinase K (manufactured by Wako Pure Chemical Industries, Ltd.); neutral proteinase (manufactured by Toyobo Co., Ltd.); and distilled water. To confirm a degree of color development caused by a developing solution, 10 μl of 1 mM FVH (manufactured by Peptide Institute Inc.) and 1 mM FVL (manufactured by Peptide Institute Inc.) were placed in a well severally, followed by adding 50 μl of the control solution. The whole was incubated at 37° C. for 60 minutes. Then, 50 μl of a pH-regulating solution and 50 μl of the developing solution were added and the whole was left at room temperature for 30 minutes, followed by the determination in a similar manner as described above.
(§9) 50 mM Acetate-sodium acetate (pH3.5)
(§10) 0.09% 4-aminoantipyrine (manufactured by Wako Pure Chemical Industries, Ltd.)
as §4, §5

Compared with B4, B1 is higher in “control solution (absorbance, RAW DATA)” value: 0.023 for the first, 0.060 for the second.

Going from B5 to B6, the “control solution (absorbance, RAW DATA)” value falls from 0.034 to 0.016.

Experiment: Screening of protease (pH 7.5), control solution without substrate
Format: biochemical
Conditions: pH 7.5, no substrate; 550 nm, reference 595 nm
Method: as §1, §3, §4, §5, §6

Compared with B3, B4 is lower in “control solution (absorbance, RAW DATA)” value: 0.018 for the first, 0.017 for the second.

First: B1
Second: B5
The “control solution (absorbance, RAW DATA)” value of the first is lower: 0.028 for the first, 0.031 for the second.

First: B2
Second: B6
The “control solution (absorbance, RAW DATA)” value of the first is higher: 0.055 for the first, 0.012 for the second.

Experiment: Screening of protease for hemoglobin A1c determination (pH 3.5)
Format: biochemical
Conditions: pH 3.5, 37° C. 60 minutes; 550 nm, reference 595 nm; FOD923 developing solution
Method: as §8, §9, §7, §10, §4, §5

Going from B4 to B1, the “α-Solution (absorbance, RAW DATA)” value rises from 0.024 to 0.063.

Going from B5 to B6, the “α-Solution (absorbance, RAW DATA)” value falls from 0.195 to 0.019.

Experiment: as above
Format: biochemical
Conditions: pH 3.5
Method: as §8, §9, §2, §10, §4, §5

In the case of B1, the “specificity for β-chain over α-chain N-terminal glycated pentapeptide” value is reported as “cleaves a glycated peptide from an N-terminal glycated pentapeptide of a hemoglobin β-chain without substantially cleaving”.

Same assay, conditions: pH 3.5, 37° C. 60 minutes; 550 nm, reference 595 nm; FOD923 developing solution

Going from B4 to B1, the “β-Solution (absorbance, RAW DATA)” value rises from 0.026 to 0.147.

First: B5
Second: B6
The “β-Solution (absorbance, RAW DATA)” value of the first is higher: 0.206 for the first, 0.018 for the second.
